# Measurements reported in patent publication US11892449B2, “Therapeutics and point of care lateral-flow test for virus and antibodies using tagged assembled proteins” (priority 2021, dated 2024).
# B1: HIF1α-MAP-1 (protein)
# chain: MRGSHHHHHHGSACELAATATATATATATAACGDLAPQMLRELQETNAALQDVRELLRQQVKEITFLKNTLLEIWKAAKEAAKEAAAKIEEQAKTFLDKFNGEELLRALDQVN
# B2: H-MAP-2 (protein)
# chain: MRGSPKKKRKVGGGGSHHHHHHHHGSACELAATATATATATATAACGDLAPQMLRELQETNAALQDVRELLRQQVKEITFLKNTLLEIWKAAKEAAKEAAAKIEEQAKTFLDKFNGEELLRALDQVN
# How the values were obtained:
# [1] = biological target: p300; assay: ELISA binding to p300, total binding kinetics; conditions: for Kd: ELISA, average of three independent trials
# Description: FIG. 21. H-MAP1 (H-MAP) and H-MAP2 ELISA fitted with total binding kinetics using Prism 7 (GraphPad) with calculated binding affinities as an average of three independent trials.
# [2] = system: HIF1α; assay: Hypoxia-inducible luciferase reporter in MDA-MB-231 cells; type: cell-based; conditions: MDA-MB-231-Luciferase cells, hypoxia induced with 100 μM CoCl2, increasing concentrations
# Description: FIG. 22. […] Results are normalized to maximum luciferase intensity of two independent trials.
# We will further characterize the HIF1α-MAP1 and iterative HIF1α-MAP designs as described in the following section. For example, to increase the likelihood of translocation to the nucleus, HIF1α-MAP-2 (H-MAP-2) was designed by addition of nuclear localization sequence, PKKKRKV (SEQ ID NO:7), at the N-terminus. […] To test the ability of HIF1α-MAPs to modulate hypoxia-inducible signaling, HIF1α-MAP-2 was incubated with triple negative breast cancer cell line, MDA-MB-231, stably transfected a construct to express firefly luciferase under normoxic and hypoxic (induced with final concentration 100 μM CoCl2) conditions.
molecule,measurement,setting,value
native HIF1α [reference compound],Kd,[1],0.38 nM
B1,Kd,[1],0.00808 nM
same,fold improvement in comparison to native HIF1α,[1]; binding to p300,47 fold
B2,Kd,[1],0.0382 nM
same,expression of luciferase (hypoxia-inducible gene expression),[2],inhibitions of HIF1α
same,expression of luciferase (hypoxia-inducible gene expression),[2]; listed as HIF1α-MAP-2,decreased expression of luciferase
